Measurements from patent US20260176603, “TYPE II CAS PROTEINS AND APPLICATIONS THEREOF” (Alia Therapeutics Srl, published 2026).

T1: BDLP Type II Cas (metagenomic)
T1 chain: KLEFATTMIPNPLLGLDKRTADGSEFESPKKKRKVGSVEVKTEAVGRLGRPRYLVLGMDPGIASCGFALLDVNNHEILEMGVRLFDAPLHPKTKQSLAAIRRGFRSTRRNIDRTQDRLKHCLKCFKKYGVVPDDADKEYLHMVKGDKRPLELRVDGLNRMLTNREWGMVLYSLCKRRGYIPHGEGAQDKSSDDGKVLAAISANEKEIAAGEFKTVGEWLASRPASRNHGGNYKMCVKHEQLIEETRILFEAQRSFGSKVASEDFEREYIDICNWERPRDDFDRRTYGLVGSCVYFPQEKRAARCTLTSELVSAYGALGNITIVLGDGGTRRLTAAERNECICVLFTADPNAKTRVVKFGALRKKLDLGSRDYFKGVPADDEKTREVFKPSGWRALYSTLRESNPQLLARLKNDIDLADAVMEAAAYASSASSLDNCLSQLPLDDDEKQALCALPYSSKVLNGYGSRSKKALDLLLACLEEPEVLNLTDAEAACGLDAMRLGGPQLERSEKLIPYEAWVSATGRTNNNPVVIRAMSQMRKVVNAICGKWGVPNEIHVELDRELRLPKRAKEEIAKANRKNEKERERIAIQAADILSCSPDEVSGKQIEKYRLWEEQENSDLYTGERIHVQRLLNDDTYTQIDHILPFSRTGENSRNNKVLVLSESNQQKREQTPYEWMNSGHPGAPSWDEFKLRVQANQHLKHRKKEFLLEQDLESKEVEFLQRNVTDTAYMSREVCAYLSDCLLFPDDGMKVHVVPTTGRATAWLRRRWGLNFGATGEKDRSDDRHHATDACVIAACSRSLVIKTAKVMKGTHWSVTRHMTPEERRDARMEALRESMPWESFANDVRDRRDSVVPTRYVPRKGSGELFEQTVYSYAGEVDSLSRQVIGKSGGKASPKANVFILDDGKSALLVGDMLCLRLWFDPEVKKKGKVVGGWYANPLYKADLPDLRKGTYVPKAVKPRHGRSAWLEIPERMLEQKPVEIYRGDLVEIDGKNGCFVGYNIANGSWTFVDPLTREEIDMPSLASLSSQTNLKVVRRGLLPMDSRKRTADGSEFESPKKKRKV

T2: EQSC Type II Cas (metagenomic)
T2 chain: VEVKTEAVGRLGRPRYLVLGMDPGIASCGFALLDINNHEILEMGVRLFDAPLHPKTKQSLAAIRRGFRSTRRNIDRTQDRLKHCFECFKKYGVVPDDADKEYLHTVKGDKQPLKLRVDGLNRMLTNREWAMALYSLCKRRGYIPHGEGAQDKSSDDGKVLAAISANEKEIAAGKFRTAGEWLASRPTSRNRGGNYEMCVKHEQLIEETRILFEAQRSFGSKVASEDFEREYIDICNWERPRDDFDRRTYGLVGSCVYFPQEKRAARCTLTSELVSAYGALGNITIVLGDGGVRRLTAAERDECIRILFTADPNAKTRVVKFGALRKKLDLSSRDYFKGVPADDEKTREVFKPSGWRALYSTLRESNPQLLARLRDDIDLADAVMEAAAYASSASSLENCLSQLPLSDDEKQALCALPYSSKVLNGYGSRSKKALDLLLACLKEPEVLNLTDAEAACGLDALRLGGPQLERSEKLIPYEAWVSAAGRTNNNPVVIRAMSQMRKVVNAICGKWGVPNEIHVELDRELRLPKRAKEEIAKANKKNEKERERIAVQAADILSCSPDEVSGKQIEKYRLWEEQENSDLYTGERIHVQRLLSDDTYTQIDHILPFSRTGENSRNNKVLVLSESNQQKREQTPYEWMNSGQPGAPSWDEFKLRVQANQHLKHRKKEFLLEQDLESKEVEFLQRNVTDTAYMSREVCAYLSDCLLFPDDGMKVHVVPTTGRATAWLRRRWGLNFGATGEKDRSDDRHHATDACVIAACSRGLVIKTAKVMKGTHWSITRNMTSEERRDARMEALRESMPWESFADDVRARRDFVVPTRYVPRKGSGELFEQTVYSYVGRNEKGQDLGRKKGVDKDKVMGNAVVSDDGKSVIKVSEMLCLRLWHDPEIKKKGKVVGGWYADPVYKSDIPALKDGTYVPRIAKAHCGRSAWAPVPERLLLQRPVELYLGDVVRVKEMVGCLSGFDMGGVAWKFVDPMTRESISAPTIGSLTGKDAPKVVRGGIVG

B1: gRNA-BDLP-EGFP-g1 ; EGFP target BDLP g1 (ssRNA ; dsDNA)
RNA: GCCCAUCCUGGUCGAGCUGGACGGGUCUUGAGCUCGGAAACGAGACUCCAGACAAGGGGAGUCUACAACAGUAGGUUCACCCGUAGGGUUACCCCCGCGUCAUCCUCGGAAGGCGCGGGGCGAACUCUUUUUU
DNA 1: GGTGCCCATCCTGGTCGAGCTGGACGGCGACGTAAA
DNA 2: TTTACGTCGCCGTCCAGCTCGACCAGGATGGGCACC
B2: gRNA-BDLP-EGFP-g2 ; EGFP target BDLP g2 (ssRNA ; dsDNA)
RNA: GGGGUAGCGGCUGAAGCACUGCAGUCUUGAGCUCGGAAACGAGACUCCAGACAAGGGGAGUCUACAACAGUAGGUUCACCCGUAGGGUUACCCCCGCGUCAUCCUCGGAAGGCGCGGGGCGAACUCUUUUUU
DNA 1: GTCGGGGTAGCGGCTGAAGCACTGCACGCCGTAGG
DNA 2: CCTACGGCGTGCAGTGCTTCAGCCGCTACCCCGAC
B3: gRNA-BDLP-EGFP-g3 ; EGFP target BDLP g3 (ssRNA ; dsDNA)
RNA: GUAGUUGCCGUCGUCCUUGAAGAAGUCUUGAGCUCGGAAACGAGACUCCAGACAAGGGGAGUCUACAACAGUAGGUUCACCCGUAGGGUUACCCCCGCGUCAUCCUCGGAAGGCGCGGGGCGAACUCUUUUUU
DNA 1: CTTGTAGTTGCCGTCGTCCTTGAAGAAGATGGTGCG
DNA 2: CGCACCATCTTCTTCAAGGACGACGGCAACTACAAG
B4: gRNA-EQSC-EGFP-g1 ; EGFP target EQSC g1 (ssRNA ; dsDNA)
RNA: GCCCAUCCUGGUCGAGCUGGACGGUCUUGAGCUCGGAAACGAGACUCCAGACAAGGGGAACCUACAACGGUAGGUUCACCCGUAGGGUUACCCCCGCGUCAUCUUCGGAAGGCGCGGGGCGAACUCUUUUUU
DNA 1: GGTGCCCATCCTGGTCGAGCTGGACGGCGACGTAAAC
DNA 2: GTTTACGTCGCCGTCCAGCTCGACCAGGATGGGCACC
B5: gRNA-EQSC-EGFP-g2 ; EGFP target EQSC g2 (ssRNA ; dsDNA)
RNA: UGCAGAUGAACUUCAGGGUCAGCGUCUUGAGCUCGGAAACGAGACUCCAGACAAGGGGAACCUACAACGGUAGGUUCACCCGUAGGGUUACCCCCGCGUCAUCUUCGGAAGGCGCGGGGCGAACUCUUUUUU
DNA 1: TGGTGCAGATGAACTTCAGGGTCAGCTTGCCGTAGGT
DNA 2: ACCTACGGCAAGCTGACCCTGAAGTTCATCTGCACCA
B6: gRNA-EQSC-EGFP-g3 ; EGFP target EQSC g3 (ssRNA ; dsDNA)
RNA: GCACGACUUCUUCAAGUCCGCCAGUCUUGAGCUCGGAAACGAGACUCCAGACAAGGGGAACCUACAACGGUAGGUUCACCCGUAGGGUUACCCCCGCGUCAUCUUCGGAAGGCGCGGGGCGAACUCUUUUUU
DNA 1: GCAGCACGACTTCTTCAAGTCCGCCATGCCCGAAGGC
DNA 2: GCCTTCGGGCATGGCGGACTTGAAGAAGTCGTGCTGC

What was measured:
[1] = molecular target: T1, BDLP Type II Cas; assay: cell_activity; PAM NNNNGT; U2OS-EGFP; settings: tags: N-terminal SV5 tag and NLS, C-terminal NLS
[2] = molecular target: T2, EQSC Type II Cas; assay: cell_activity; PAM NNNNCNNA; U2OS-EGFP; settings: tags: N-terminal SV5 tag and NLS, C-terminal NLS

Row | Binder | activity [1] | activity [2]
1 | B1 | > 90 % EGFP KO | –
2 | B2 | > 90 % EGFP KO | –
3 | B3 | > 90 % EGFP KO | –
4 | B4 | – | > 90 % EGFP KO
5 | B5 | – | > 90 % EGFP KO
6 | B6 | – | > 90 % EGFP KO
